According to patent publication US5567302A, “Electrochemical system for rapid detection of biochemical agents that catalyze a redox potential change” (priority 1995, dated 1996):

Test system: OC[C@H]1O[C@@H](Oc2c[nH]c3ccc(Br)c(Cl)c23)[C@H](O)[C@@H](O)[C@H]1O
Assay: purified protein, by the assay type
Conditions: other: β-D-galactosidase substrate; stated when explaining why the standard curve levels off at high enzyme amounts

Q: How did the Km turn out when “biotinylated β-D-galactosidase (Escherichia coli K-12)” was run?
A: Its Km is 3000 µM.
